Measured values: the nanobody polyreactivity screen of Harvey et al. (2022)

assay: yeast display, Sf9 membrane polyspecificity reagent, FACS + sequencing; frameworks hold sequencing errors
Outline: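 Synthetic nanobody libraries on Saccharomyces cerevisiae BJ5465 were galactose-induced for 36–48 hours, stained 1 hour at 4 °C with 10% biotinylated, detergent-solubilized Sf9 membrane reagent and enriched on streptavidin microbeads. FACS then separated cells into low and high (top ~1%) gates by anti-HA (expression) and streptavidin (reagent binding) fluorescence. Genes were colony-PCR amplified, MiSeq 2 × 250 sequenced and CDR-length filtered. A clone's polyreactivity label is that of its gate of origin.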

Sequence	polyreactivity (PSR sort gate)
QVQLVESGGGLVQAGGSLRLSCAASGSIFAINVMGWYRQAPGKEREFVAAISVRSGSTYYADSVKGRFTISRDNAKNTVYLQMNSLKPEDTAVYYCARDSYYIGRWLYYWGQGTQVTVSS	high polyreactivity
QVQLVESGGGLVQAGGSLRLSCAASGSIFAIYVMGWYRQAPGKERELVAAITWSGGSTYYADSVKGRFTISRDNAKNTVDLQMNSLKPEDTAVYYCAARVLRVRTVTTTWGQGTQVTLSS	high polyreactivity
QVQLVESGGGLVQAGGSLRLSCAASGSIFAKNAMGWYRPAPGTERELVAGIDFSGGSTYYADSVKGRFTISGDNAKNTVYLQMNSLKAEDTAVYYCAADWAYKYELDYWGQGNQVTVSS	low polyreactivity
QVQLVESGGGLVQAGGSLRLSCAASGSIFAKNAMGWYRQAPGKERELVAAIDLNGGSTYYADSVKGRFTISRDNAKNTVYLQMNSLKPEDTAVYYCADYYGHSSVIRSSPEYDSWGQGTQVTVSS	low polyreactivity
QVQLVESGGGLVQAGGSLRLSCAASGSIFAKYYARGWYRQAPVKERELVAAITSGGITNYADSVKGRFTISRDNAKNSVYLQMNSLKPEDTAVYYCAARKWLSAFDYWGQGTQVTVSS	low polyreactivity
QVQLVESGGGLVQAGGSLRLSCAASGSIFALYTMGWYRQAPWKERELVAGIRTGRSTNYADSVKGRFTISRDNAKNTVYLQMNSLKPEDTAVYYDYWGQGTQVTVSS	low polyreactivity
QVQLVESGGGLVQAGGSLRLSCAASGSIFANAMGWYRQAHGKERELVAAISFSGGRTFYADSVKGRFTISRDNAKNTVYLQMNSLKPEDTAVYYCAKGKISSRSGIYNYWGQGTQVTVSS	high polyreactivity
QVQLVESGGGLVQAGGSLRLSCAASGSIFANNAMGWYRQAPGKERELVAAISSSGGSTYYADSVKGRFTISRDNAKNTVYLQMNSLKPEDTAVYYCAARFYYGRRYSTSYDYWGQGTQVTVSS	high polyreactivity
QVQLVESGGGLVQAGGSLRLSCAASGSIFANYAMGWYRQAPGKERELVAAISKRGGSTNYADSVKGRFTISRDNAKNTVYLQMISLKPEDTAVYYCNVKPGSRRVLAAAYGYWGQGTKVTVSS	low polyreactivity
QVQLVESGGGLVQAGGSLRLSCAASGSIFAPYAMGLYRQAPGKERELVAAIRSSGGSTHYADSVKGRFTISRDNAKNTVYLQMNSLKPEDTAVYYCARSYGWYRWAGYDYWGQGTQVTVSS	high polyreactivity
QVQLVESGGGLVQAGGSLRLSCAASGSIFAPYAMGWYRQAPGKERELVAAIRWSGGRTYYADSVKGRFTISRDNAKNTVYLQMNSLKPEDTAVYYCNAVIHRLGKTYGTNRVDYWGQGTQVTVSS	high polyreactivity
QVQLVESGGGLVQAGGSLRLSCAASGSIFAPYAMGWYRQAPGKERELVAAISRSGGSTYYADSVKGRFTISRDNAKNTVYLQMNSLKPEDTAVYYCAVRNGLRQYRLDYWGQGTQVTVSS	high polyreactivity
QVQLVESGGGLVQAGGSLRLSCAASGSIFAPYAMGWYRQAPGKERELVATIRTTGDSTYYADSVKGRFTISRDNAKNTVYLQMNSLKPEDTAVYYCAAQQGVISRGNYWGQGTQVTVSS	low polyreactivity
QVQLVESGGGLVQAGGSLRLSCAASGSIFARYAMGWYRQAPGKERELVAAISRNGGSTYYADSVKGRFTISRDNAKNTVYLQMNSLKPEDTAVYYCAATQVGHYRIYDYWGQGTQVTVSS	low polyreactivity
QVQLVESGGGLVQAGGSLRLSCAASGSIFARYAMGWYRQAPGKERELVAAISSNSASTYYADSVKGRFTISRDNAKNTVYLQMNSLKPEDTAVYYCATAYRSYWLNDYWGQGTQVTVSS	low polyreactivity
QVQLVESGGGLVQAGGSLRLSCAASGSIFASNAMGWYRQAPGKEREFVAAIRYSGGITYYADSVKGRFTISRDNAKNTVYLQMNSLKPEDTAVYSCAAYGWGIRWYSRFDYWGQGTPVTVSS	high polyreactivity
QVQLVESGGGLVQAGGSLRLSCAASGSIFASNAMGWYRQAPGKEREFVAAITWRTDRTYYADSVKGRFTISRDNAKNTVFLQMNSLKPEDTAVYYCAADTWFYRFYYWGQCTQVTVSS	high polyreactivity
QVQLVESGGGLVQAGGSLRLSCAASGSIFASYAMGWYRQAPGKERELVAAISRRAVRTYYADSVKGRFTISRDNAKNTVYLQMNSLKPEDTAVYYCNATRGQYVGRYYYWGQGTQVTVSS	high polyreactivity
QVQLVESGGGLVQAGGSLRLSCAASGSIFASYDMGWYRQAPGKERELVARITFNGGSTYYADSVKGRFTISRDNAKNTVYLQMNSLKPEETAVYYCNADYPWEYDYWGLGTQVTVSS	low polyreactivity
QVQLVESGGGLVQAGGSLRLSCAASGSIFATNAMGWYRQAPGKERELVASISSGGGSTYDADSVKGRFTLSRDNAKNTVYLQMNSLKPEDTAVYYCARRIGQGSRPYWLETWRYPYDYWGQGTQVTVSS	low polyreactivity
QVQLVESGGGLVQAGGSLRLSCAASGSIFAVYAMGWYRQAPGKERELVAASSTDYADSVKGRFTISRDNAKNTVYLQMNSLKPEDTAVYYCAKVGFGIPGGFYFWGQGTQVTVSS	low polyreactivity

Sequence	polyreactivity (PSR sort gate)
QVQLVESGGGLVQAGGSLRLSCAASGSIFAVYAMGWYRQAPGKERELVASISRTGTTNYADSVKGRFTISRDNAKNTVYLQMNSLKPEDTAVYYCAADTWGLPDGYWYSEHPEFDYWGQGTQVTVSS	low polyreactivity
QVQLVESGGGLVQAGGSLRLSCAASGSIFAVYAMGWYRQAPGKERELVASISRTGTTNYADSVKGRFTISRDNAKNTVYLQMNSLKPEDTAVYYCNADAYLYYKYHWGFTFYQYEYWGQGTQVTVSS	low polyreactivity
QVQLVESGGGLVQAGGSLRLSCAASGSIFAVYAMGWYRQAPGKERELVASITNDGSTYADSVKGRFTISRDNAKNTVYLQINSQKPEDTAVYYCNADYLTYFTTFDYWGQGTQVTVSS	low polyreactivity
QVQLVESGGGLVQAGGSLRLSCAASGSIFAVYAMGWYRQAPGKERELVASITNDGSTYADSVKGRFTISRDNAKNTVYLQLNSLKPEDTAVYYCNADYLTYFTTFDYWGQGTQVTVSS	low polyreactivity
QVQLVESGGGLVQAGGSLRLSCAASGSIFAVYAMGWYRQAPGKERELVAVITRSGGSTYYADSVKGRFTISRDNAKNTVYLQMNSLKPEDTEVYYCAARSGYGYTRYEYWGQGTQVTVSS	high polyreactivity
QVQLVESGGGLVQAGGSLRLSCAASGSIFAVYTMGWYRQAPGKERELVAAINWSGARTYYADSVKGRFTISRDNEKNTVYLQMNSLKPEDSAVYYCAAESRLGVAYIYWGQGTQVTVSS	low polyreactivity
QVQLVESGGGLVQAGGSLRLSCAASGSIFAWYAMGWYRQAPGKERELVATITWSGGSTYYADSVKGRFTISRDNAKNTVYLQMNSLKPEDTAVYYCAAEVVGIWYDLWYQGDYWGQGTQVTVSS	low polyreactivity
QVQLVESGGGLVQAGGSLRLSCAASGSIFAWYGMGWYRQAPGKERELVAAISTAGSTNYADSVKGRFTISRDNAKNTVYLQMNSLKQEDSAVYYCAKKSSWYYPERFDYWGQGTQVNVSS	low polyreactivity
QVQLVESGGGLVQAGGSLRLSCAASGSIFAYAMGWDRQAPGKERELFAAISGGSTYYADSVKGRFTISRDNAKNTVYLQMNSLNPEDTAVYSCAADLDDERYYWGQGTQVTVSS	low polyreactivity
QVQLVESGGGLVQAGGSLRLSCAASGSIFAYNAMGRYRQAPGKEREYVAAISQSGGRTYYADSVKGRFTISRDTSKNTVYLQMNSLKPEDTAVYYCATDGIRLTRHRDYDYWGQGTQVTVSS	low polyreactivity
QVQLVESGGGLVQAGGSLRLSCAASGSIFAYNAMGWYRQAPGKEREFVAVITRSDDSTYADSVKGRFTISRDNAKNTVFLQMNRLKPEDTAVYDCAAQPFVIDGGYRGDYWGQGTQVTVSS	low polyreactivity
QVQLVESGGGLVQAGGSLRLSCAASGSIFAYNAMGWYRQAPGKERELVAAISAGGRTKYADSVKGRFTISRDNAKNTVYLQMNCLKPEDTAVYYCAAESYTGKYSWVWKWYDYWGQGTQVTVSS	low polyreactivity
QVQLVESGGGLVQAGGSLRLSCAASGSIFAYNAMGWYRQAPGKERELVAAITRSGVNTYYADSVKGRFTISRDNAKNTVYLQMNRLKPEDTAVYYCNAVFWGLQKWPQ	low polyreactivity
QVQLVESGGGLVQAGGSLRLSCAASGSIFAYNAMGWYRQAPGKERELVAGISSRGVSTYADSVKGRFTISRDNAKNTVYLQMNSLKPEDTAVYYCARGGYWGKRGRYDYWGQGTQVTVSS	low polyreactivity
QVQLVESGGGLVQAGGSLRLSCAASGSIFAYNGMGGYRQPPGKERELVAAISRRGGSTTYADSVKGRFTISRDNAKNTVYLQMNSLKPEDTAVYYCNTGAWSVRKMYYWGQGTQVTVSS	high polyreactivity
QVQLVESGGGLVQAGGSLRLSCAASGSIFAYYAMGWYRQAPGKEREFVAAISKRGGRTYYADSVKGRFTISRDNAKNTVYLQMNSLKPEDTAVYYCAAPWAYPRSGGDYWGQGTQVTVSS	high polyreactivity
QVQLVESGGGLVQAGGSLRLSCAASGSIFAYYAMGWYRQAPGKERELVAAISRRGGSTYYADSVKGRFTISRDNAKNTVYLQMNSLKPEDTAVYYCAARRSTQYKTGVDSWGQGTQVTVSS	high polyreactivity
QVQLVESGGGLVQAGGSLRLSCAASGSIFAYYAMGWYRQAPGKERELVAAISSSGGSTTYADSVKGRFTISRDNAKNTVYLQMNSLKPEDTAVYYCNAAWRRSRYYYWGQGTQVTVSS	high polyreactivity
QVQLVESGGGLVQAGGSLRLSCAASGSIFAYYAMGWYRQAPGKESELVARITYSTDGTYYADSVKGRFTISRDNAKNTVYLQMNSLKPEDTAVYYCAVDTWWGFKRYKFDYWGQGTQVTVSS	low polyreactivity
QVQLVESGGGLVQAGGSLRLSCAASGSIFAYYSMGWYIQAPGKERELVAAISWSGGSTYYADSVKGRFTISRDNAKNTVYLQMNSLKPEDTAVYYCNVARSYSKMYWGQGTQVTVSS	high polyreactivity
